The series is described as follows: yeast display, Sf9 membrane polyspecificity reagent, FACS + sequencing; frameworks hold sequencing errors. Summed up: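 Synthetic nanobody libraries on Saccharomyces cerevisiae BJ5465 were galactose-induced for 36–48 hours, stained 1 hour at 4 °C with 10% biotinylated, detergent-solubilized Sf9 membrane reagent and enriched on streptavidin microbeads. FACS then separated cells into low and high (top ~1%) gates by anti-HA (expression) and streptavidin (reagent binding) fluorescence. Genes were colony-PCR amplified, MiSeq 2 × 250 sequenced and CDR-length filtered. A clone's polyreactivity label is that of its gate of origin.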
Regarding “QVQLVESGGGLVQAGGSLRLSCAASGFMFSRYAMGWYRQAAGTERELVAAITSSGGRTYYADSVKGRFTISRDNAKNTVYLQMTSLKPEDTAVYYCNADLGSWYTWFDYWGQGTQVTVSS”, the “polyreactivity (PSR sort gate)” value was “high polyreactivity”.

Consider “QVQLVESGGGLVQAGGSLRLSCAASGFNFPVNAMGWYRQAPGTERELVASITRSGGRTYYADSVKGRLTISRDNAKNTVYLQMNSLKPEDTAVYYCAARYLQEYVYEYDYWGQGTQVTVSS”, for which the “polyreactivity (PSR sort gate)” value was “high polyreactivity”.

Regarding “QVQLVESGGGLVQAGGSLRLSCAASGFNFRANGMGWYRQAPGKERELVATITSGGTTNYADSVKGRFTITRDNAKNTVYLQMNSLKPEDTAVYYCAKRFVQAYFRLYDYWGQGTQVNVSS”, the “polyreactivity (PSR sort gate)” value was “low polyreactivity”.

For “QVQLVESGGGLVQAGGSLRLSCAASGFNFSYYAMGWYRQAPGKERELVAAINSGGVRTYYADSVKGRFTISRDNAKNTVYLQMNSLKPEDTAVYYCAARRHDSRYQYDYWGQGTQVTVSS”, the “polyreactivity (PSR sort gate)” value is “high polyreactivity”.

“QVQLVESGGGLVQAGGSLRLSCAASGFNFSYYVMGWSRQAPGKERELVAAITKSGGSTYYADSVKGRFTISRDNAKNTVYLQMNSLKPEDTAVYYCAAVRGYRGYDYWGQGTQVTVSS”: the “polyreactivity (PSR sort gate)” value is “high polyreactivity”.

Take “QVQLVESGGGLVQAGGSLRLSCAASGFNFTAYAMGWYRQAPGKERELVAAISSGGSTNYADSVKGRFTISRDNAKNSVYLQMNSLKPEDTAVYYCAALLRGIEYDYWGQGTQVTVSS”: the “polyreactivity (PSR sort gate)” value is “high polyreactivity”.

As to “QVQLVESGGGLVQAGGSLRLSCAASGFNFYLNAMGWYRQAPGKERELVAAISSSGGITYYADSVKGRFTISRDNAKNTVYLQMNSLKPEDTADYSCAAYWPKYRYEAERDYWGQGTQVTVSS”, the “polyreactivity (PSR sort gate)” value is listed as “low polyreactivity”.

With “QVQLVESGGGLVQAGGSLRLSCAASGFNYSQYAMGWYRQAPGKERELVAAITTTGGSTYYADSVKGRFTISRDNAKNTVYLQMNSLKPDDTAVYYCAARYVRTVRGGYWGQGTQVTVSS”, the “polyreactivity (PSR sort gate)” value is recorded as “high polyreactivity”.

Consider “QVQLVESGGGLVQAGGSLRLSCAASGFSFDSYALGWYRKAPGKERELVAAISRSGGSTYYADSVKGRFTISRDNAKNTVYLQMNSLKPEDTAVYYCARDRDSWGGHDSWGQGTQVTVSS”, for which the “polyreactivity (PSR sort gate)” value is on record as “high polyreactivity”.

Turning to “QVQLVESGGGLVQAGGSLRLSCAASGFSFFKYAMGWYRQAPGKERELVAAISSSGGSTYYADSVKGRFTISRDNAKKTVYLQMNSLKPEDTAVYYCAVDNLKCRAQSLDGFDYWGQGTQVTVSS”, the “polyreactivity (PSR sort gate)” value is reported as “high polyreactivity”.

In the case of “QVQLVESGGGLVQAGGSLRLSCAASGFSFGIYAMGWYRQAPGKERELVADITASGGSTYYADSVKGRFTISRDNAKNTVYLQMNSLKPEDTAVYYCAADGWWHNFYPGTGLDYWGQGTQVTVSS”, the “polyreactivity (PSR sort gate)” value is “low polyreactivity”.

Regarding “QVQLVESGGGLVQAGGSLRLSCAASGFSFPYAMGGYRQAPGKERELVAGISWSGGSTYYADSVKGRFTISRDNAKNTVYLQMNSLKPEDTAVYNCNKYVQSGGTYDYWGQGTQVTVSS”, the “polyreactivity (PSR sort gate)” value is listed as “low polyreactivity”.

Turning to “QVQLVESGGGLVQAGGSLRLSCAASGFSFQLYPMGWYRQAPWKERELVSAISQSGDSTYYADSVKGRFTISRDNAKNTVYLQMNSQKPEDNAVYYFNAVNDGVVWSYPFDFDYWGQGTQVTVSS”, the “polyreactivity (PSR sort gate)” value was “low polyreactivity”.

Turning to “QVQLVESGGGLVQAGGSLRLSCAASGFSFYNYAMGWYRQAPGKERELVAAISWSGGSTHYADSVKGRFTISRDNAKNTVYLQMNSLKPEDTAVYYCAKVGVLGYYTYYYWGQGTQVTVSS”, the “polyreactivity (PSR sort gate)” value is reported as “low polyreactivity”.

In the case of “QVQLVESGGGLVQAGGSLRLSCAASGFTCKYYAMGWYRQAPGKERELVASINWSGGRTSYADSVKGRFTISRDNAKNTVYLQMNSLKREDTAVYYCARTPAGRGEYWGQGSQVTVSS”, the “polyreactivity (PSR sort gate)” value is on record as “low polyreactivity”.

Regarding “QVQLVESGGGLVQAGGSLRLSCAASGFTCSSNAMGWSRLAAGKERELVAAISSSGARTYYADSVKGRFTISRDNAKTTVYLQMNSLKPEDTAVYYCNARGLAGRKGYDYGGQGTQVTVSS”, the “polyreactivity (PSR sort gate)” value is “high polyreactivity”.

For “QVQLVESGGGLVQAGGSLRLSCAASGFTFAANTMGWYRQAPGKERELVADISGRGDRTSYADSVKGRFTISRDNAKNTVYLQMNSLKPEDTAVYYCAVDIYYYSNVHYYYWGQGTQVTVSS”, the “polyreactivity (PSR sort gate)” value is “low polyreactivity”.

Turning to “QVQLVESGGGLVQAGGSLRLSCAASGFTFADYAMGWYRQAPGKEREWVAAISNGGSTTYADSVKGRFTSSRDNAKNTVYLQMNTLNPEDTAVYYCAAALSSYGWYAYGPWYGYWGQGTQVTVSS”, the “polyreactivity (PSR sort gate)” value is “high polyreactivity”.

Regarding “QVQLVESGGGLVQAGGSLRLSCAASGFTFAFNDMGWYRQAPGKERELVAAITWSGGSTYYADSVKGRFTISRDNAKNTVYLQMNSLKPEDTAVYYCNADLLGYVYLNLPVGSWGQGTQVTVSS”, the “polyreactivity (PSR sort gate)” value is “low polyreactivity”.

As for “QVQLVESGGGLVQAGGSLRLSCAASGFTFAFYAMGRYRQAPGKERELVAAISRRGGSTTYADSVKGRFTISRDNAKNTVYLQMNSLKPEDTAVYYCNAVSTRNPGPDYYYWGQGTQVTVSS”, the “polyreactivity (PSR sort gate)” value is reported as “high polyreactivity”.

As to “QVQLVESGGGLVQAGGSLRLSCAASGFTFAFYAMGWYRQAPGKERELVAAISKNDGTTYYADSVKGRFTISRHTAKNTVYLLMNSLKPEDTAVYYCAAESCYPVYTYVSSGDYWGQGTQVTVSS”, the “polyreactivity (PSR sort gate)” value was “low polyreactivity”.

Consider “QVQLVESGGGLVQAGGSLRLSCAASGFTFAFYTLGWYIQATGKETELVASISWRSGSTYYADSVKGRFTISRDNAKNSVYLQMNSLNPDDTAVYYCAADSAVSWFFYCGQGTQVTVSS”, for which the “polyreactivity (PSR sort gate)” value is given as “high polyreactivity”.

For the sequence “QVQLVESGGGLVQAGGSLRLSCAASGFTFAGYAMGWYRLAPGKVRELVAAISWRGGSTYYADSVKGRFTISRDNAKNTVYLQMNSLKPEDTAVYYCAAASRKRTSREPLDYWGQGTQVTVSS”, the “polyreactivity (PSR sort gate)” value was “high polyreactivity”.

“QVQLVESGGGLVQAGGSLRLSCAASGFTFAGYAMGWYRQAPGKERELVAPINRGGSTYYADSVKGRFTISRDNAKNTVYLQMNSLKQEDTAVYYCADRQEPGWYPDVWWEYDYWGQGTQVTVSS”: the “polyreactivity (PSR sort gate)” value was “low polyreactivity”.

“QVQLVESGGGLVQAGGSLRLSCAASGFTFALYAMGWYRQAPGKEREFVAAITRSGGITYYADSVKGRFTFSRDNAKNTVYLQINSLKPEDTAVYYCAAVPRWSVYRAYGYWGQGTQVTVSS”: the “polyreactivity (PSR sort gate)” value was “high polyreactivity”.

On to “QVQLVESGGGLVQAGGSLRLSCAASGFTFALYAMGWYRQAPGKERELVASIDNGVSTNYADSVKGRFTISRDNAKNTVYLQMTSLKPEDTAVYYCAKGPGYGLYKLLSYDSWGQGTQVTVSS”, for which the “polyreactivity (PSR sort gate)” value is “low polyreactivity”.

“QVQLVESGGGLVQAGGSLRLSCAASGFTFANNAMGWYRQAPGKERELVAAISWNGGSTFYADSVKGRFTISRDNAKNTVYLQMNSLKPEDTAVYYCNTVASYYRWKSYYYWGQGTQVTVSS”: the “polyreactivity (PSR sort gate)” value is recorded as “high polyreactivity”.

For “QVQLVESGGGLVQAGGSLRLSCAASGFTFAPNAMGWYRQAPGKERELVAAISSASSTYYADSVKGRFTISRDNAKNTVYLQMNSLKPEETAVYYCAAKSSTKQRKYYWGQGTQVTVSS”, the “polyreactivity (PSR sort gate)” value is “high polyreactivity”.

For the sequence “QVQLVESGGGLVQAGGSLRLSCAASGFTFARYAMGWYRQAPGKERELVAAINWSGGRTYYADSVKGRFTISRDNAKNTVYLQMNSLKPEDTAVYYCNAWGLVYYSSGYDYWGQGTQVTVSS”, the “polyreactivity (PSR sort gate)” value was “high polyreactivity”.

As for “QVQLVESGGGLVQAGGSLRLSCAASGFTFARYAMGWYRQAPGKERELVAAISRGTTTYYADSVKGRFTISRDNAKNTVYLQMNILKPDDTAVYYCAAVTTRTYPGRYYYWGQGTQVTVSS”, the “polyreactivity (PSR sort gate)” value is given as “high polyreactivity”.

“QVQLVESGGGLVQAGGSLRLSCAASGFTFASNAMGWYRPAPWKERELVAGISRTGTTTYYADSVKGRFTISRDNAKNTVYLQMNSLKPEDTAVYYCAASKQAVKYRSQRYYYWGQGTQVTVSS”: the “polyreactivity (PSR sort gate)” value is listed as “high polyreactivity”.

For the sequence “QVQLVESGGGLVQAGGSLRLSCAASGFTFASNVMGWYRQAPGKERELVAAITSGASTNYADSVKGRFTISRDNAKNTVYLQMNSLKPEDTAVYYCAAGRQWYVFYEFDYWGQGTQVTVSS”, the “polyreactivity (PSR sort gate)” value was “high polyreactivity”.

Turning to “QVQLVESGGGLVQAGGSLRLSCAASGFTFATYAMGWYRQAPGKERELVAAITYRGGRTYYADSVKGRFTISRDNAKNTVYLQMNSLKPEDTAVYYCNTVYPRRLIFGYWGQGTQVTVSS”, the “polyreactivity (PSR sort gate)” value is recorded as “high polyreactivity”.

Regarding “QVQLVESGGGLVQAGGSLRLSCAASGFTFAVYAMGWYRQAPGKEREFVADITYDGGSTYYADSVKGRFTISRDNAKNTVYLQMNSLKPEDTAVYYGAAERLGAFQTPSNVSKYYYWGQGSQVTVSS”, the “polyreactivity (PSR sort gate)” value is “low polyreactivity”.

“QVQLVESGGGLVQAGGSLRLSCAASGFTFAVYAMGWYRQAPGKERELGAAISRSGTRTYYADSVKGRFTFSRDNAKNTVYLQMNSLKPEDTAVYYCATVVILIYDYWGQGTQVSVSS”: the “polyreactivity (PSR sort gate)” value was “low polyreactivity”.

“QVQLVESGGGLVQAGGSLRLSCAASGFTFAVYVMGWYRQAPGKERELVATISFSVGSTYYADSVKGRFTISGDNAKNTVYLQMNRLKPEDTAVYYCNADPPPEYYPDKDNYWGQGTQVTVSS”: the “polyreactivity (PSR sort gate)” value is “low polyreactivity”.

Consider “QVQLVESGGGLVQAGGSLRLSCAASGFTFAWYAMGWYRPAPGKERELVAAISGSGGRTYYADSVKGRFTISRDNAKNTVYLQMNSLKPEDTAVYYFNTDRYWGKGDYWGQGTLVTVSS”, for which the “polyreactivity (PSR sort gate)” value is reported as “high polyreactivity”.

In the case of “QVQLVESGGGLVQAGGSLRLSCAASGFTFAYNAMGWYRPAPGKERELVAAITTRTGTTYYADSVKGRFTISRDNAKNTVYLQMNSLKPEDTAVYYCAKRGYYRYYYWGQGTLVTVSS”, the “polyreactivity (PSR sort gate)” value is listed as “high polyreactivity”.

For the sequence “QVQLVESGGGLVQAGGSLRLSCAASGFTFAYNAMGWYRQAPGKEREFVAAITSSGGSTYYADSVKGRFTISRDYAKNTVYLQMNSLKPEHTAVYYCNAYYTFPRYQYGYWGQGTQVTVSS”, the “polyreactivity (PSR sort gate)” value is recorded as “high polyreactivity”.

Turning to “QVQLVESGGGLVQAGGSLRLSCAASGFTFAYYAMGWYRQAPGKERELVAAISERGGSTYYADSVKGRFTISRDNAKNTVYLQMNSLKPEDTAVYYCARTFWDYPWYQSSYYSWGQGTQVTVSS”, the “polyreactivity (PSR sort gate)” value was “low polyreactivity”.

“QVQLVESGGGLVQAGGSLRLSCAASGFTFAYYAMGWYRQAPGKERELVAAISSGGGSTYYADSVKGRFTISRDNAKNTVYLQMNSLKPEDTAVYYCATTIQISYDSIWYDYWGQGTQVTVSS”: the “polyreactivity (PSR sort gate)” value is recorded as “high polyreactivity”.
